Assay results as given in the RNAGym collection of RNA variant scans (doi:10.1021/acssynbio.7b00057).

B1: Pistol ribozyme (parent)
chain: GGGUCGUUGUUCCAUAAUCGCGUGGAUAUGGCACGCAAGUUUCUACCGGGCACCGUAAAUGUCCGACUGGAGCCGUUCGGGCGGCUAUAAACAGACCUCAGGCCCGAAGCGUGGCGGCACCUGCCGCCGGUGGUAAAAAAGAUCGGAAGAGCACACGUCU

Variants of: B1
Experiment: aptazyme ON/OFF ratio, guanine; higher = stronger switching; co-transcriptional cleavage with and without guanine

In order of rising “aptazyme ON/OFF ratio” value:
1. GGGUCGAGUACCCAUAAUCGCGUGGAUAUGGCACGCAAGUUUCUACCGGGCACCGUAAAUGUCCGACUGGAGCCGUUCGGGCGGCUAUAAACAGACCUCAGGCCCGAAGCGUGGCGGCACCUGCCGCCGGUGGUAAAAAAGAUCGGAAGAGCACACGUCU [U7A U8G G9U U10A U11C]  1.06
2. GGGUCGAGUAUGAAUAAUCGCGUGGAUAUGGCACGCAAGUUUCUACCGGGCACCGUAAAUGUCCGACUGGAGCCGUUCGGGCGGCUAUAAACAGACCUCAGGCCCGAAGCGUGGCGGCACCUGCCGCCGGUGGUAAAAAAGAUCGGAAGAGCACACGUCU [U7A U8G G9U U10A C12G C13A]  1.09
3. GGGUCGAGUACAGAUAAUCGCGUGGAUAUGGCACGCAAGUUUCUACCGGGCACCGUAAAUGUCCGACUGGAGCCGUUCGGGCGGCUAUAAACAGACCUCAGGCCCGAAGCGUGGCGGCACCUGCCGCCGGUGGUAAAAAAGAUCGGAAGAGCACACGUCU [U7A U8G G9U U10A U11C C12A C13G]  1.2
4. GGGUCGAGUAAACAUAAUCGCGUGGAUAUGGCACGCAAGUUUCUACCGGGCACCGUAAAUGUCCGACUGGAGCCGUUCGGGCGGCUAUAAACAGACCUCAGGCCCGAAGCGUGGCGGCACCUGCCGCCGGUGGUAAAAAAGAUCGGAAGAGCACACGUCU [U7A U8G G9U U10A U11A C12A]  1.2
5. GGGUCGAGUAAAAAUAAUCGCGUGGAUAUGGCACGCAAGUUUCUACCGGGCACCGUAAAUGUCCGACUGGAGCCGUUCGGGCGGCUAUAAACAGACCUCAGGCCCGAAGCGUGGCGGCACCUGCCGCCGGUGGUAAAAAAGAUCGGAAGAGCACACGUCU [U7A U8G G9U U10A U11A C12A C13A]  1.24
6. GGGUCGAGUACAAAUAAUCGCGUGGAUAUGGCACGCAAGUUUCUACCGGGCACCGUAAAUGUCCGACUGGAGCCGUUCGGGCGGCUAUAAACAGACCUCAGGCCCGAAGCGUGGCGGCACCUGCCGCCGGUGGUAAAAAAGAUCGGAAGAGCACACGUCU [U7A U8G G9U U10A U11C C12A C13A]  1.25
7. GGGUCGAGUAAAGAUAAUCGCGUGGAUAUGGCACGCAAGUUUCUACCGGGCACCGUAAAUGUCCGACUGGAGCCGUUCGGGCGGCUAUAAACAGACCUCAGGCCCGAAGCGUGGCGGCACCUGCCGCCGGUGGUAAAAAAGAUCGGAAGAGCACACGUCU [U7A U8G G9U U10A U11A C12A C13G]  1.25
8. GGGUCGAGUAUAGAUAAUCGCGUGGAUAUGGCACGCAAGUUUCUACCGGGCACCGUAAAUGUCCGACUGGAGCCGUUCGGGCGGCUAUAAACAGACCUCAGGCCCGAAGCGUGGCGGCACCUGCCGCCGGUGGUAAAAAAGAUCGGAAGAGCACACGUCU [U7A U8G G9U U10A C12A C13G]  1.28
9. GGGUCGAGUAUUUAUAAUCGCGUGGAUAUGGCACGCAAGUUUCUACCGGGCACCGUAAAUGUCCGACUGGAGCCGUUCGGGCGGCUAUAAACAGACCUCAGGCCCGAAGCGUGGCGGCACCUGCCGCCGGUGGUAAAAAAGAUCGGAAGAGCACACGUCU [U7A U8G G9U U10A C12U C13U]  1.31
10. GGGUCGAGUAUUAAUAAUCGCGUGGAUAUGGCACGCAAGUUUCUACCGGGCACCGUAAAUGUCCGACUGGAGCCGUUCGGGCGGCUAUAAACAGACCUCAGGCCCGAAGCGUGGCGGCACCUGCCGCCGGUGGUAAAAAAGAUCGGAAGAGCACACGUCU [U7A U8G G9U U10A C12U C13A]  1.32
11. GGGUCGAGUAAUCAUAAUCGCGUGGAUAUGGCACGCAAGUUUCUACCGGGCACCGUAAAUGUCCGACUGGAGCCGUUCGGGCGGCUAUAAACAGACCUCAGGCCCGAAGCGUGGCGGCACCUGCCGCCGGUGGUAAAAAAGAUCGGAAGAGCACACGUCU [U7A U8G G9U U10A U11A C12U]  1.32
12. GGGUCGAGUAUGUAUAAUCGCGUGGAUAUGGCACGCAAGUUUCUACCGGGCACCGUAAAUGUCCGACUGGAGCCGUUCGGGCGGCUAUAAACAGACCUCAGGCCCGAAGCGUGGCGGCACCUGCCGCCGGUGGUAAAAAAGAUCGGAAGAGCACACGUCU [U7A U8G G9U U10A C12G C13U]  1.36
13. GGGUCGAGUAUAUAUAAUCGCGUGGAUAUGGCACGCAAGUUUCUACCGGGCACCGUAAAUGUCCGACUGGAGCCGUUCGGGCGGCUAUAAACAGACCUCAGGCCCGAAGCGUGGCGGCACCUGCCGCCGGUGGUAAAAAAGAUCGGAAGAGCACACGUCU [U7A U8G G9U U10A C12A C13U]  1.36
14. GGGUCGAGUAUUGAUAAUCGCGUGGAUAUGGCACGCAAGUUUCUACCGGGCACCGUAAAUGUCCGACUGGAGCCGUUCGGGCGGCUAUAAACAGACCUCAGGCCCGAAGCGUGGCGGCACCUGCCGCCGGUGGUAAAAAAGAUCGGAAGAGCACACGUCU [U7A U8G G9U U10A C12U C13G]  1.36
15. GGGUCGAGUACAUAUAAUCGCGUGGAUAUGGCACGCAAGUUUCUACCGGGCACCGUAAAUGUCCGACUGGAGCCGUUCGGGCGGCUAUAAACAGACCUCAGGCCCGAAGCGUGGCGGCACCUGCCGCCGGUGGUAAAAAAGAUCGGAAGAGCACACGUCU [U7A U8G G9U U10A U11C C12A C13U]  1.37
16. GGGUCGAGUAAAUAUAAUCGCGUGGAUAUGGCACGCAAGUUUCUACCGGGCACCGUAAAUGUCCGACUGGAGCCGUUCGGGCGGCUAUAAACAGACCUCAGGCCCGAAGCGUGGCGGCACCUGCCGCCGGUGGUAAAAAAGAUCGGAAGAGCACACGUCU [U7A U8G G9U U10A U11A C12A C13U]  1.42
17. GGGUCGAGUAUGGAUAAUCGCGUGGAUAUGGCACGCAAGUUUCUACCGGGCACCGUAAAUGUCCGACUGGAGCCGUUCGGGCGGCUAUAAACAGACCUCAGGCCCGAAGCGUGGCGGCACCUGCCGCCGGUGGUAAAAAAGAUCGGAAGAGCACACGUCU [U7A U8G G9U U10A C12G C13G]  1.47
18. GGGUCGAGUAACCAUAAUCGCGUGGAUAUGGCACGCAAGUUUCUACCGGGCACCGUAAAUGUCCGACUGGAGCCGUUCGGGCGGCUAUAAACAGACCUCAGGCCCGAAGCGUGGCGGCACCUGCCGCCGGUGGUAAAAAAGAUCGGAAGAGCACACGUCU [U7A U8G G9U U10A U11A]  2.58
